Measured values from US6969760B2, “Jak kinases and regulation of cytokine signal transduction” (St. Jude Children's Research Hospital, priority 1993, dated 2005).

What was measured:
[1] = tested on: wild-type 2C4 and γ-1/Jak2 transfectants; assay: IFN-γ response (cell surface markers, IFN-inducible mRNAs) of wild-type 2C4 and γ-1/Jak2 transfectants; format: cell-based, human
Method: Cell surface expression of transfected CD2 and endogenous Class I and II HLAs in response to IFNs-α or -γ on wild-type 2C4, mutant γ-1 cells and mutant γ-1 cells stably transfected with a murine Jak2 cDNA expression construct. Data was generated for an enriched population and a clone of γ-1/Jak2 transfectants using FACSCAN (BECTON DICKINSON) analyses (3000 data points, Consort 30). Cells were plated at 5×10^5/10 cm dish and treated the following day with 10^3 IU/ml of a highly purified mixture of α-IFNs (WELLFERON 1.5×10^8 IU/mg protein, kindly supplied by WELLCOME […]. LABORATORIES, Beckenham, UK) or recombinant human IFN-γ (4×10^7 IU/mg protein, obtained from Dr. Gunter Adolf, Ernst Boehringer Institut fur Arzneimittelforschung, Vienna, Austria, and commercially or readily available). […]
IFN-inducible gene expression in wild type 2C4, mutant γ-1 and mutant γ-1/Jak2 transfected cells: mRNA expression in response to IFNs-α or -γ was monitored by RNase protection using probes to detect the IFN-inducible mRNAs of: the 9-27, 6-16, 2-5A synthetase and ISGF3γ genes and the p91 and p84 alternatively spliced products of the p91/84 ISGF3α gene and the IRF1 and GBP genes. […]

[2] = tested on: EMC virus; assay: Antiviral assay versus EMC virus; format: cell-based; conditions: per 1 fmole of 125I-IFN-γ
Method: Binding of ^125I-labeled IFN-γ to 2C4 and mutant γ-1 cells: ^125I-IFN-γ (667 Ci/mMole, Amersham International, UK) treatment was of triplicate samples of 10^6 cells for 90 min at 0° C. Non-specific binding was subtracted. It was determined in parallel in the presence of a 200 fold excess of unlabeled IFN-γ and represented approximately 40% of the total radioactivity bound. In a parallel antiviral assay versus EMC virus 1 fmole of ^125I-IFN-γ was equivalent to 0.15 IU. Specific binding at the highest IFN-γ concentration here corresponded to about 6000 receptors per cell.

[3] = tested on: Jak3 and Jak1; assay: IL-2/IL-4-induced tyrosine phosphorylation of Jaks in CTLL cells; format: cell-based, murine
Method: IL-2 and IL-4 stimulation of Jak1 and Jak3 tyrosine phosphorylation and activation of Jak3 in vitro kinase activity. FIG. 9A: CTLL cells were deprived of growth factors for 14 hr and were either left unstimulated (lanes 1, 4, 7 and 10), were stimulated with 100 U/ml with IL-2 (Cetus) for 10 min (lanes 2,5,8 and 11) or were stimulated with 100 ng/ml of IL-4 (R&D) for 10 min (lanes 3, 6, 9 and 12). Extracts were prepared as previously described (Witthuhn et al., Cell: 227-236 (1993)) and used for immunoprecipitation with the indicated antisera. The immunoprecipitates were resolved by SDS-PAGE, electrophoretically transferred to nitrocellulose and the membranes were probed with the 4G10 monoclonal antibody (UBI) against phosphotyrosine. FIG. 9B: CTLL cells were deprived of growth factors for 14 hr and were either unstimulated (lane 1), stimulated with IL-2 (lane 2) or stimulated with IL-4 (lane 3) as above. Extracts were prepared and used for immunoprecipitation with the Jak3/Jak1 cross-reactive antipeptide antiserum against Tyk2. The immunoprecipitates were used in in vitro kinase assays as previously described (Witthuhn et al., Cell: 227-236 (1993)) and the products resolved by SDS-PAGE and visualized by autoradiography. […]

B1: IFN-γ: recombinant human IFN-γ (4×10^7 IU/mg protein) (protein)
chain: QDPYVKEAENLKKYFNAGHSDVADNGTLFLGILKNWKEESDRKIMQSQIVSFYFKLFKNFKDDQSIQKSVETIKEDMNVKFFNSNKKKRDDFEKLTNYSVTDLNVQRKAIHELIQVMAELSPAAKTGKRKRSQMLFRGRRASQ
[1]
  IFN-γ concentration giving an approaching maximal response: 100 IU/ml
[1]; dose response curves essentially identical
  IFN-γ concentration giving a clear response: 10 IU/ml

B2: ^125I-IFN-γ: 125I-labeled IFN-γ (667 Ci/mMole, Amersham) (protein)
chain: B1 chain
[2]
  antiviral activity equivalent of 1 fmole: 0.15 IU

B3: IL-4: IL-4 (R&D), cytokine (protein, UniProt P05112 25-153, looked up)
Interleukin-4: HKCDITLQEIIKTLNSLTEQKTLCTELTVTDIFAASKNTTEKETFCRAATVLRQFYSHHEKDTRCLGATAQQFHRHKQLIRFLKRLDRNLWGLAGLNSCPVKEANQSTLENFLERLKTIMREKYSKCSS
[3]
  onset of phosphorylation of the Jaks following stimulation: detectable within one minute
